Results published in PMC4118585.

B1: myc-tagged FIP3 (FIP3-myc) (natural protein)
chain: MASAPPASPPGSEPPGPDPEPGGPDGPGAAQLAPGPAELRLGAPVGGPDPQSPGLDEPAPGAAADGGARWSAGPAPGLEGGPRDPGPSAPPPRSGPRGQLASPDAPGPGPRSEAPLPELDPLFSWTEEPEECGPASCPESAPFRLQGSSSSHRARGEVDVFSPFPAPTAGELALEQGPGSPPQPSDLSQTHPLPSEPVGSQEDGPRLRAVFDALDGDGDGFVRIEDFIQFATVYGAEQVKDLTKYLDPSGLGVISFEDFYQGITAIRNGDPDGQCYGGVASAQDEEPLACPDEFDDFVTYEANEVTDSAYMGSESTYSECETFTDEDTSTLVHPELQPEGDADSAGGSAVPSECLDAMEEPDHGALLLLPGRPHPHGQSVITVIGGEEHFEDYGEGSEAELSPETLCNGQLGCSDPAFLTPSPTKRLSSKKVARYLHQSGALTMEALEDPSPELMEGPEEDIADKVVFLERRVLELEKDTAATGEQHSRLRQENLQLVHRANALEEQLKEQELRACEMVLEETRRQKELLCKMEREKSIEIENLQTRLQQLDEENSELRSCTPCLKANIERLEEEKQKLLDEIESLTLRLSEEQENKRRMGDRLSHERHQFQRDKEATQELIEDLRKQLEHLQLLKLEAEQRRGRSSSMGLQEYHSRARESELEQEVRRLKQDNRNLKEQNEELNGQIITLSIQGAKSLFSTAFSESLAAEISSVSRDELMEAIQKQEEINFRLQDYIDRIIVAIMETNPSILEVK
B2: myc-tagged FIP4 (FIP4-myc), full length (natural protein)
chain: MAGGAGWSGAPAALLRSVRRLREVFEVCGRDPDGFLRVERVAALGLRFGQGEEVEKLVKYLDPNDLGRINFKDFCRGVFAMKGCEELLKDVLSVESAGTLPCAPEIPDCVEQGSEVTGPTFADGELIPREPGFFPEDEEEAMTLAPPEGPQELYTDSPMESTQSLEGSVGSPAEKDGGLGGLFLPEDKSLVHTPSMTTSDLSTHSTTSLISNEEQFEDYGEGDDVDCAPSSPCPDDETRTNVYSDLGSSVSSSAGQTPRKMRHVYNSELLDVYCSQCCKKINLLNDLEARLKNLKANSPNRKISSTAFGRQLMHSSNFSSSNGSTEDLFRDSIDSCDNDITEKVSFLEKKVTELENDSLTNGDLKSKLKQENTQLVHRVHELEEMVKDQETTAEQALEEEARRHREAYGKLEREKATEVELLNARVQQLEEENTELRTTVTRLKSQTEKLDEERQRMSDRLEDTSLRLKDEMDLYKRMMDKLRQNRLEFQKEREATQELIEDLRKELEHLQMYKLDCERPGRGRSASSGLGEFNARAREVELEHEVKRLKQENYKLRDQNDDLNGQILSLSLYEAKNLFAAQTKAQSLAAEIDTASRDELMEALKEQEEINFRLRQYMDKIILAILDHNPSILEIKH

Target: HCMV glycoprotein M (gM, UL100) in HCMV-infected cells (HCMV strain AD169)
Experiment: FRET or BRET

HCMV glycoprotein M (gM, UL100) in HCMV-infected cells (HCMV strain AD169), sequence (P16733 whole entry): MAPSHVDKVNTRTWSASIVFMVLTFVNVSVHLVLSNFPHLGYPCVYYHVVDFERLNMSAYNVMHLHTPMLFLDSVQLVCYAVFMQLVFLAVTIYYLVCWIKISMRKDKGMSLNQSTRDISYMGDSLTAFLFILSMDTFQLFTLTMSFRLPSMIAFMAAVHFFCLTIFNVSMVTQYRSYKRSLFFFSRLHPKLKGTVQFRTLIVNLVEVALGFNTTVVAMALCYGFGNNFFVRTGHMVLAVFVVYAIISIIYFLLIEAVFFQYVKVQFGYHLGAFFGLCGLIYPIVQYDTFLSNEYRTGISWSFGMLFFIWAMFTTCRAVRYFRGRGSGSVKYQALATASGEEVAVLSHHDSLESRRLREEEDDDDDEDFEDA

Row | Binder | average FRET efficiency [%]
1 | B1 | < 2
2 | B2 | 27
